Laboratory results as given in patent US20190241648A1 (STATEN BIOTECHNOLOGY B V, published 2019).
Ends that are not written are not given here.

Tests used:
Assay in all cases: peptide microarray
ApoC3 peptide … L50G = biological target: T1, ApoC3 peptide … L50G (human, not fully specified; cyclic constrained)
T1 peptide: ARGWVTDGFSSGK
In short: (§1)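 Peptide microarrays of ApoC3-derived peptides incubated with antibody samples, then stained with goat anti-human IgG (Fc) DyLight680 (1:5000) and anti-HA DyLight800 (1:2000) control. Read-out by fluorescence scanning at intensities 7/7 (red/green); a secondary-only pre-stain checked background, HA frame peptides served as quality control.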

ApoC3 peptide … G41S = biological target: T2, ApoC3 peptide … G41S (human, also: cyclic constrained)
T2 peptide: ARSWVTDGFSSLK
In short: as §1

ApoC3 peptide … R40D = biological target: T3, ApoC3 peptide … R40D (human, not fully specified (bridges); also: cyclic constrained)
T3 peptide: ADGWVTDGFSSLK
In short: as §1

ApoC3 peptide … L50Q = biological target: T4, ApoC3 peptide … L50Q (human, not fully specified (bridges); also: cyclic constrained)
T4 peptide: ARGWVTDGFSSQK
In short: as §1

ApoC3 peptide … K51W = biological target: T5, ApoC3 peptide … K51W (human, not fully specified; cyclic constrained)
T5 peptide: ARGWVTDGFSSLW
In short: as §1

ApoC3 peptide … K51D = biological target: T6, ApoC3 peptide … K51D (human, thioether (positions not given here); also: cyclic constrained)
T6 peptide: ARGWVTDGFSSLD
In short: as §1

ApoC3 peptide … W42L = biological target: T7, ApoC3 peptide … W42L (human, not fully specified (bridges); also: cyclic constrained)
T7 peptide: ARGLVTDGFSSLK
In short: as §1

ApoC3 peptide … F47S = biological target: T8, ApoC3 peptide … F47S (human, also: cyclic constrained)
T8 peptide: ARGWVTDGSSSLK
In short: as §1

ApoC3 peptide … V43C = biological target: T9, ApoC3 peptide … V43C (human, not fully specified; cyclic constrained)
T9 peptide: ARGWCTDGFSSLK
In short: as §1

ApoC3 peptide … W42K = biological target: T10, ApoC3 peptide … W42K (human, not fully specified (bridges); also: cyclic constrained)
T10 peptide: ARGKVTDGFSSLK
In short: as §1

ApoC3 peptide … V43K = biological target: T11, ApoC3 peptide … V43K (human, not fully specified; cyclic constrained)
T11 peptide: ARGWKTDGFSSLK
In short: as §1

ApoC3 peptide … S49P = biological target: T12, ApoC3 peptide … S49P (human, cyclic constrained)
T12 peptide: ARGWVTDGFSPLK
In short: as §1

ApoC3 peptide … F47C = biological target: T13, ApoC3 peptide … F47C (human, not fully specified (bridges); also: cyclic constrained)
T13 peptide: ARGWVTDGCSSLK
In short: as §1

ApoC3 peptide … L50P = biological target: T14, ApoC3 peptide … L50P (human, not fully specified (bridges); also: cyclic constrained)
T14 peptide: ARGWVTDGFSSPK
In short: as §1

ApoC3 peptide … S48V = ApoC3 peptide … S48V (human, cyclic constrained)
In short: as §1

ApoC3 peptide … T44L = biological target: T15, ApoC3 peptide … T44L (human, not fully specified (bridges); also: cyclic constrained)
T15 peptide: ARGWVLDGFSSLK
In short: as §1

ApoC3 peptide … D45G = biological target: T16, ApoC3 peptide … D45G (human, not fully specified (bridges); also: cyclic constrained)
T16 peptide: ARGWVTGGFSSLK
In short: as §1

ApoC3 peptide … A39P = biological target: T17, ApoC3 peptide … A39P (human, cyclic constrained)
T17 peptide: PRGWVTDGFSSLK
In short: as §1

ApoC3 peptide … T44D = biological target: T18, ApoC3 peptide … T44D (human, not fully specified (bridges); also: cyclic constrained)
T18 peptide: ARGWVDDGFSSLK
In short: as §1

ApoC3 peptide … S48C = biological target: T19, ApoC3 peptide … S48C (human, not fully specified; cyclic constrained)
T19 peptide: ARGWVTDGFCSLK
In short: as §1

ApoC3 peptide … A39L = biological target: T20, ApoC3 peptide … A39L (human, cyclic constrained)
T20 peptide: LRGWVTDGFSSLK
In short: as §1

ApoC3 peptide … S49K = biological target: T21, ApoC3 peptide … S49K (human, cyclic constrained)
T21 peptide: ARGWVTDGFSKLK
In short: as §1

ApoC3 peptide … R40A = biological target: T22, ApoC3 peptide … R40A (human, not fully specified (bridges); also: cyclic constrained)
T22 peptide: AAGWVTDGFSSLK
In short: as §1

ApoC3 peptide … A39E = biological target: T23, ApoC3 peptide … A39E (human, cyclic constrained)
T23 peptide: ERGWVTDGFSSLK
In short: as §1

ApoC3 peptide … G41C = biological target: T24, ApoC3 peptide … G41C (human, also: cyclic constrained)
T24 peptide: ARCWVTDGFSSLK
In short: as §1

ApoC3 peptide … K51N = biological target: T25, ApoC3 peptide … K51N (human, not fully specified; cyclic constrained)
T25 peptide: ARGWVTDGFSSLN
In short: as §1

ApoC3 peptide … S49V = biological target: T26, ApoC3 peptide … S49V (human, not fully specified (bridges); also: cyclic constrained)
T26 peptide: ARGWVTDGFSVLK
In short: as §1

ApoC3 peptide … L50T = biological target: T27, ApoC3 peptide … L50T (human, not fully specified (bridges); also: cyclic constrained)
T27 peptide: ARGWVTDGFSSTK
In short: as §1

ApoC3 peptide … V43A = biological target: T28, ApoC3 peptide … V43A (human, not fully specified; cyclic constrained)
T28 peptide: ARGWATDGFSSLK
In short: as §1

ApoC3 peptide … A39F = biological target: T29, ApoC3 peptide … A39F (human, cyclic constrained)
T29 peptide: FRGWVTDGFSSLK
In short: as §1

ApoC3 peptide … G41M = biological target: T30, ApoC3 peptide … G41M (human, also: cyclic constrained)
T30 peptide: ARMWVTDGFSSLK
In short: as §1

- % of binding to wild-type peptide (ApoC3 peptide … L50G): 0%
- % of binding to wild-type peptide (ApoC3 peptide … G41S): 18.7%
- % of binding to wild-type peptide (ApoC3 peptide … R40D): 50%
- % of binding to wild-type peptide (ApoC3 peptide … L50Q): 0.12%
- % of binding to wild-type peptide (ApoC3 peptide … K51W): 0%
- % of binding to wild-type peptide (ApoC3 peptide … K51D): 0%
- % of binding to wild-type peptide (ApoC3 peptide … W42L): 312%
- % of binding to wild-type peptide (ApoC3 peptide … F47S): 0%
- % of binding to wild-type peptide (ApoC3 peptide … V43C): 0.12%
- % of binding to wild-type peptide (ApoC3 peptide … W42K): 136%
- % of binding to wild-type peptide (ApoC3 peptide … V43K): 25.4%
- % of binding to wild-type peptide (ApoC3 peptide … S49P): 0%
- % of binding to wild-type peptide (ApoC3 peptide … F47C): 0%
- % of binding to wild-type peptide (ApoC3 peptide … L50P): 0%
- % of binding to wild-type peptide (ApoC3 peptide … S48V): 45.3%
- % of binding to wild-type peptide (ApoC3 peptide … T44L): 0.5%
- % of binding to wild-type peptide (ApoC3 peptide … D45G): 2.16%
- % of binding to wild-type peptide (ApoC3 peptide … A39P): 166%
- % of binding to wild-type peptide (ApoC3 peptide … T44D): 0%
- % of binding to wild-type peptide (ApoC3 peptide … S48C): 56.8%
- % of binding to wild-type peptide (ApoC3 peptide … A39L): 77.5%
- % of binding to wild-type peptide (ApoC3 peptide … S49K): 3.23%
- % of binding to wild-type peptide (ApoC3 peptide … R40A): 50.1%
- % of binding to wild-type peptide (ApoC3 peptide … A39E): 98.9%
- % of binding to wild-type peptide (ApoC3 peptide … G41C): 14.8%
- % of binding to wild-type peptide (ApoC3 peptide … K51N): 2.6%
- % of binding to wild-type peptide (ApoC3 peptide … S49V): 0.59%
- % of binding to wild-type peptide (ApoC3 peptide … L50T): 0%
- % of binding to wild-type peptide (ApoC3 peptide … V43A): 26.9%
- % of binding to wild-type peptide (ApoC3 peptide … A39F): 78.2%
- % of binding to wild-type peptide (ApoC3 peptide … G41M): 18.7%
B1: anti-ApoC3 antibody 14C7 (antibody, V domains shown)
VH: QVQVQESGPGLVKPSQTLSLTCTVSGGSITTNSYYWSWIRQPPGKGLEWMGAIDYSGDTYYSPSLKSRTSISRDTSKNQFTLQLTSVTPEDTAVYYCVSRIPTGEYWGQGTQVTVSS
VL: QTVVTQEPSLSVSPGGTVTLTCGLNSGSVTSSNYPDWYQQTPGQAPRLLIYNTNSRHSGVPSRFSGSISGNKAALTITGAQPEDEADYYCALYMGSDSVVFGGGTHLTVL
notes: it was detected with goat anti-human IgG (Fc); also called mAb 14C7; llama antibody 14C7
